Reference: article PMC9935876, “Structure of the planar cell polarity cadherins Fat4 and Dachsous1” (Nature Communications, 2023)
“And” between values parts separate entries of the source, which are not always exact repeats. Identical values can stand only once.

T1: Human Fat4F358A(EC1-4) (human, UniProt Q6V0I7 43-475, F358A)
T1 construct: Fat4, human, EC1-EC4, aa43-475, with F358A in EC4
T1 sequence: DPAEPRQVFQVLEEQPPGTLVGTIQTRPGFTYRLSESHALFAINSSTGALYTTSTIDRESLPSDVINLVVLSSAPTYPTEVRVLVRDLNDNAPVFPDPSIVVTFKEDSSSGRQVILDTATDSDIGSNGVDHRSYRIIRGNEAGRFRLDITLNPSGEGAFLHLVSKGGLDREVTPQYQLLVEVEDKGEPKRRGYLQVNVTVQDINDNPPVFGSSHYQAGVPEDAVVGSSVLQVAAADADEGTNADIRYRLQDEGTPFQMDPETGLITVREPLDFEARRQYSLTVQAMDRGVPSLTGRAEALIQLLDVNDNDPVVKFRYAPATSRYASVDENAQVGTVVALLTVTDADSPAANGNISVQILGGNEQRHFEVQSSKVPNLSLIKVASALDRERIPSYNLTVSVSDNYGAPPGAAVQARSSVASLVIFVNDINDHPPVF

T2: Human Fat4(EC1-4) (human, UniProt Q6V0I7 43-475)
T2 construct: Fat4, human, EC1-EC4, aa43-475; Tags were cleaved only for the constructs meant for co-crystallisation; nothing is said for ITC; also called Fat4 EC1–EC4
T2 sequence: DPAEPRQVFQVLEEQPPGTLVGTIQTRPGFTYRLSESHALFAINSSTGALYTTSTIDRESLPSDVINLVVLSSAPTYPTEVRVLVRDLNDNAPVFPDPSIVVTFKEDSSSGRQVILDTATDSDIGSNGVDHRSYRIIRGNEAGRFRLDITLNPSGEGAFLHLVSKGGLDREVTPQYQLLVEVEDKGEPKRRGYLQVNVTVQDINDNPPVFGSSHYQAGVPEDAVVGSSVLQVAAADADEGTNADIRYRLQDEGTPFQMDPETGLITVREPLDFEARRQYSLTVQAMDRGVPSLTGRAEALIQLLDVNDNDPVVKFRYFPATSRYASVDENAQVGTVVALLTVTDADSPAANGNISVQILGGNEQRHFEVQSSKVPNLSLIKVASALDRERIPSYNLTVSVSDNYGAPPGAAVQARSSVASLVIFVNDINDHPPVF


What was measured:
Assay in all cases: ITC; MicroCal ITC200; Fat4 construct 30 µM in the sample cell, Dchs1 construct 300 µM as titrant; 20 °C; fitted with one set of sites; two independent experiments
Conditions in all cases: both partners purified
Human Fat4F358A(EC1-4) = target: T1, Human Fat4F358A(EC1-4)
Human Fat4(EC1-4) [1] = target: T2, Human Fat4(EC1-4)
Human Fat4(EC1-4) [2] = target: T2, Human Fat4(EC1-4); remark: listed apart in the source

Kd (Human Fat4F358A(EC1-4)) | Kd (Human Fat4(EC1-4) [1]) | Kd (Human Fat4(EC1-4) [2]) | Binder
0.95 µM and 0.77 µM | 0.488 µM and 0.463 µM |  | Human Dchs1(EC1-4) (domain or fragment, Dchs1 (Dachsous1), human, EC1-EC4, aa43-472; also called Dachsous1 EC1–EC4) DPQAGSLDLQIDEEQPAGTLIGDISAGLPAGTAAPLMYFISAQEGSGVGTDLAIDEHSGVVRTARVLDREQRDRYRFTAVTPDGATVEVTVRVADINDHAPAFPQARAALQVPEHTAFGTRYPLEPARDADAGRLGTQGYALSGDGAGETFRLETRPGPDGTPVPELVVTGELDRENRSHYMLQLEAYDGGSPPRRAQALLDVTLLDINDHAPAFNQSRYHAVVSESLAPGSPVLQVFASDADAGVNGAVTYEINRRQSEGDGPFSIDAHTGLLQLERPLDFEQRRVHELVVQARDGGAHPELGSAFVTVHVRDANDNQPSMTVIFLSADGSPQVSEAAPPGQLVARISVSDPDDGDFAHVNVSLEGGEGHFALSTQDSVIYLVCVARRLDREERDAYNLRVTATDSGSPPLRAEAAFVLHVTDVNDNAPAF
 |  | 1.56 µM and 2.48 µM | Human Dchs1F79A(EC1-4) (domain or fragment, Dchs1 (Dachsous1), human, EC1-EC4, aa43-472, with F79A in EC1) DPQAGSLDLQIDEEQPAGTLIGDISAGLPAGTAAPLMYAISAQEGSGVGTDLAIDEHSGVVRTARVLDREQRDRYRFTAVTPDGATVEVTVRVADINDHAPAFPQARAALQVPEHTAFGTRYPLEPARDADAGRLGTQGYALSGDGAGETFRLETRPGPDGTPVPELVVTGELDRENRSHYMLQLEAYDGGSPPRRAQALLDVTLLDINDHAPAFNQSRYHAVVSESLAPGSPVLQVFASDADAGVNGAVTYEINRRQSEGDGPFSIDAHTGLLQLERPLDFEQRRVHELVVQARDGGAHPELGSAFVTVHVRDANDNQPSMTVIFLSADGSPQVSEAAPPGQLVARISVSDPDDGDFAHVNVSLEGGEGHFALSTQDSVIYLVCVARRLDREERDAYNLRVTATDSGSPPLRAEAAFVLHVTDVNDNAPAF
